These binders were tested against DRB1*0701 (assay: binding to purified HLA).

Row | IC50 [nM] | Binder
1 | 53 | AAAHFVAAWTLHAAA [H4.H12]
2 | 82 | AAAFFVAANTLHAAA [F4.N9.H12]
3 | 55 | AAAYFVAAWTLHAAA [Y4.H12]
4 | 49 | AAAYFVAANTLHAAA [Y4.N9.H12]
5 | 74 | AAAFFVAANTLKADA [F4.N9.D14]
6 | 49 | AAAKFVAAWTLKAAA [SEQ ID NO: 4]

What follows are binders tested against DRB1*1501 (assay: binding to purified HLA).

Row | IC50 [nM] | Binder
7 | 12 | AAAHFVAAWTLHAAA [H4.H12]
8 | 70 | AAAFFVAANTLHAAA [F4.N9.H12]
9 | 16 | AAAYFVAAWTLHAAA [Y4.H12]
10 | 53 | AAAYFVAANTLHAAA [Y4.N9.H12]
11 | 103 | AAAFFVAANTLKADA [F4.N9.D14]
12 | 9.8 | AAAKFVAAWTLKAAA [SEQ ID NO: 4]

The binders below were run against DRB1*0404 (assay: binding to purified HLA).

Row | IC50 [nM] | Binder
13 | 2.5 | AAAHFVAAWTLHAAA [H4.H12]
14 | 4.1 | AAAFFVAANTLHAAA [F4.N9.H12]
15 | 2.6 | AAAYFVAAWTLHAAA [Y4.H12]
16 | 5.2 | AAAYFVAANTLHAAA [Y4.N9.H12]
17 | 4.5 | AAAFFVAANTLKADA [F4.N9.D14]
18 | 2.9 | AAAKFVAAWTLKAAA [SEQ ID NO: 4]

The binders below were run against DRB1*1101 (assay: binding to purified HLA).

Row | IC50 [nM] | Binder
19 | 14 | AAAHFVAAWTLHAAA [H4.H12]
20 | 42 | AAAFFVAANTLHAAA [F4.N9.H12]
21 | 18 | AAAYFVAAWTLHAAA [Y4.H12]
22 | 14 | AAAYFVAANTLHAAA [Y4.N9.H12]
23 | 46 | AAAFFVAANTLKADA [F4.N9.D14]
24 | 11 | AAAKFVAAWTLKAAA [SEQ ID NO: 4]

Each binder was assayed against DRB1*1302 (assay: binding to purified HLA).

Row | IC50 [nM] | Binder
25 | 1190 | AAAHFVAAWTLHAAA [H4.H12]
26 | 64 | AAAFFVAANTLHAAA [F4.N9.H12]
27 | 1560 | AAAYFVAAWTLHAAA [Y4.H12]
28 | 54 | AAAYFVAANTLHAAA [Y4.N9.H12]
29 | 187 | AAAFFVAANTLKADA [F4.N9.D14]
30 | 648 | AAAKFVAAWTLKAAA [SEQ ID NO: 4]

The binders below were run against DRB1*0901 (assay: binding to purified HLA).

Row | IC50 [nM] | Binder
31 | 21 | AAAHFVAAWTLHAAA [H4.H12]
32 | 31 | AAAFFVAANTLHAAA [F4.N9.H12]
33 | 18 | AAAYFVAAWTLHAAA [Y4.H12]
34 | 21 | AAAYFVAANTLHAAA [Y4.N9.H12]
35 | 18 | AAAFFVAANTLKADA [F4.N9.D14]
36 | 28 | AAAKFVAAWTLKAAA [SEQ ID NO: 4]

What follows are binders tested against DRB4*0101 (assay: binding to purified HLA).

Row | IC50 [nM] | Binder
37 | 267 | AAAHFVAAWTLHAAA [H4.H12]
38 | 876 | AAAFFVAANTLHAAA [F4.N9.H12]
39 | 279 | AAAYFVAAWTLHAAA [Y4.H12]
40 | 703 | AAAYFVAANTLHAAA [Y4.N9.H12]
41 | 5520 | AAAFFVAANTLKADA [F4.N9.D14]
42 | 207 | AAAKFVAAWTLKAAA [SEQ ID NO: 4]

These binders were tested against DRB1*0802 (assay: binding to purified HLA).

Row | IC50 [nM] | Binder
43 | 9.3 | AAAHFVAAWTLHAAA [H4.H12]
44 | 28 | AAAFFVAANTLHAAA [F4.N9.H12]
45 | 9.7 | AAAYFVAAWTLHAAA [Y4.H12]
46 | 12 | AAAYFVAANTLHAAA [Y4.N9.H12]
47 | 16 | AAAFFVAANTLKADA [F4.N9.D14]
48 | 5.2 | AAAKFVAAWTLKAAA [SEQ ID NO: 4]

Each binder was assayed against DRB5*0101 (assay: binding to purified HLA).

Row | IC50 [nM] | Binder
49 | 23 | AAAHFVAAWTLHAAA [H4.H12]
50 | 26 | AAAFFVAANTLHAAA [F4.N9.H12]
51 | 15 | AAAYFVAAWTLHAAA [Y4.H12]
52 | 16 | AAAYFVAANTLHAAA [Y4.N9.H12]
53 | 4.4 | AAAFFVAANTLKADA [F4.N9.D14]
54 | 5.4 | AAAKFVAAWTLKAAA [SEQ ID NO: 4]

The binders below were run against DRB1*0301 (assay: binding to purified HLA).

Row | IC50 [nM] | Binder
55 | 198 | AAAHFVAAWTLHAAA [H4.H12]
56 | 286 | AAAFFVAANTLHAAA [F4.N9.H12]
57 | 119 | AAAYFVAAWTLHAAA [Y4.H12]
58 | 130 | AAAYFVAANTLHAAA [Y4.N9.H12]
59 | 140 | AAAFFVAANTLKADA [F4.N9.D14]
60 | 209 | AAAKFVAAWTLKAAA [SEQ ID NO: 4]

The binders below were run against DRB1*0101 (assay: binding to purified HLA).

Row | IC50 [nM] | Binder
61 | 4.2 | AAAHFVAAWTLHAAA [H4.H12]
62 | 6.5 | AAAFFVAANTLHAAA [F4.N9.H12]
63 | 3.7 | AAAYFVAAWTLHAAA [Y4.H12]
64 | 4.5 | AAAYFVAANTLHAAA [Y4.N9.H12]
65 | 3.4 | AAAFFVAANTLKADA [F4.N9.D14]
66 | 3.3 | AAAKFVAAWTLKAAA [SEQ ID NO: 4]

The binders below were run against DRB1*0401 (assay: binding to purified HLA).

Row | IC50 [nM] | Binder
67 | 2.5 | AAAHFVAAWTLHAAA [H4.H12]
68 | 3.8 | AAAFFVAANTLHAAA [F4.N9.H12]
69 | 2.6 | AAAYFVAAWTLHAAA [Y4.H12]
70 | 3.3 | AAAYFVAANTLHAAA [Y4.N9.H12]
71 | 4 | AAAFFVAANTLKADA [F4.N9.D14]
72 | 2.6 | AAAKFVAAWTLKAAA [SEQ ID NO: 4]

Each binder was assayed against DRB1*0405 (assay: binding to purified HLA).

Row | IC50 [nM] | Binder
73 | 12 | AAAHFVAAWTLHAAA [H4.H12]
74 | 27 | AAAFFVAANTLHAAA [F4.N9.H12]
75 | 6.9 | AAAYFVAAWTLHAAA [Y4.H12]
76 | 13 | AAAYFVAANTLHAAA [Y4.N9.H12]
77 | 9.5 | AAAFFVAANTLKADA [F4.N9.D14]
78 | 25 | AAAKFVAAWTLKAAA [SEQ ID NO: 4]

From patent US20160114035A1 (published 2016)
